Biological target: the molecule itself
Test: SEC; 0.5 mL of 10.6 mg/mL BoSusA or 8.2 mg/mL SusA on HiPrep 16/60 Sephacryl S-200 HR, 20 mM HEPES, 100 mM NaCl, pH 7.0, 0.5 mL/min; compared with BioRad gel filtration standards

B1: SusA, periplasmic GH13 neopullulanase/alpha-amylase of the Bacteroides thetaiotaomicron Sus (enzyme, UniProt Q8A1G0 23-617, looked up)
chain: TSTIKKVAPTFWWAGMKNPELQILLYGDRISSADVSLSADNITLQEVVKQENPNYLVLYLDLSKAAPQNFDIILKQGKKQTKIPYELKQRRPNASAVEGFDSSDVLYLIMPDRFANGNPSNDIIPGMLEGNVDRNEPFARHGGDLKGIENHLDYIADLGVTSIWLNPIQENDMKEGSYHGYAITDYYQVDRRFGSNEEFRKLTQEANAKGLKVVMDMIFNHCGSDNYLFKDMPSKDWFNFEGNYVQTSFKTATQMDPYASDYEKKIAIDGWFTLTMPDFNQRNRHVATYLIQSSIWWIEYAGINGIRQDTHPYADFDMMARWCKAVNEEYPKFNIVGETWLGNNVLISYWQKDSRLAYPKNSNLPTVMDFPLMEEMNKAFDEETTEWNGGLFRLYEYLSQDIVYSHPMSLLTFLDNHDTSRFYRSEADTKNLDRYKQALTFLLTTRGIPQIYYGTEILMAADKANGDGLLRCDFPGGWPNDTKNCFDAANRTPQQNEAFSFMQKLLQWRKGNEVIAKGQLKHFAPNKGVYVYERKYGDKSVVVFLNGNDREQTIDLVPYQEILPASSAFDLLTEKKVELRNELTLPSREIYLLSF
notes: SusA, Bacteroides thetaiotaomicron VPI-5482, locus tag bt_3704 (NCBI AAO78809.1, 617 amino acids); cloned starting with T23, after the SPI signal peptide; also called bt_3704
- stoichiometry N: 2
